US20090068195A1 (Pfizer, published 2009)

B1: humanized 13.2v.2 (antibody, V domains shown)
VH: EVQLVESGGGLVQPGGSLRLSCAASGFTFISYAMSWVRQAPGKGLEWVASISSGGNTYYPDSVKGRFTISRDNAKNSLYLQMNSLRAEDTAVYYCARLDGYYFGFAYWGQGTLVTVSS
VL: DIQMTQSPSSLSASVGDRVTITCKASESVDNYGKSLMHWYQQKPGKAPKLLIYRASNLESGVPSRFSGSGSGTDFTLTISSLQPEDFATYYCQQSNEDPWTFGGGTKVEIK
notes: Humanized form of mAb13.2; also called h13.2v2; h13.2v.2
B2: non-human primate (cynomolgus monkey) IL-13 (ligand)
chain: SPVPPSTALKELIEELVNITQNQKAPLCNGSMVWSINLTAGVYCAALESLINVSGCSAIEKTQRMLNGFCPHKVSAGQFSSLRVRDTKIEVAQFVKDLLVHLKKLFREGQFN
notes: the construct used in the assays is not described; Also used here for endogenous IL-13 of cynomolgus monkeys in the PK-PD fits; also called NHP IL-13; NHP-IL-13
B3: mouse monoclonal antibody MJ 2-7 (antibody, mouse IgG1, V domains shown)
VH: EVQLQQSGAELVKPGASVKLSCTGSGFNIKDTYIHWVKQRPEQGLEWIGRIDPANDNIKYDPKFQGKATITADTSSNTAYLQLNSLTSEDTAVYYCARSEENWYDFFDYWGQGTTLTVSS
VL: DVLMTQTPLSLPVSLGDQASISCRSSQSIVHSNGNTYLEWYLQKPGQSPKLLIYKVSNRFSGVPDRFSGSGSGTDFTLKISRVEAEDLGVYYCFQGSHIPYTFGGGTKLEIK
notes: also called mAb7.1.1; murine MJ2-7
B4: mouse monoclonal antibody C65 (antibody, V domains shown)
VH: QVQLKESGPGLVAPSQSLSITCTVSGFSLTGYGVNWVRQPPGKGLEWLGIIWGDGSTDYNSALKSRLIINKDNSKSQVFLKMNSLQTDDTARYFCARDKTFYYDGFYRGRMDYWGQGTSVTVSS
VL: DVQMIQSPSSLSASLGDIVTMTCQASQGTSINLNWFQQKPGKAPKLLIFGASNLEDGVPSRFSGSRYGTNFTLTISSLEDEDMATYFCLQHSYLPWTFGGGTKLEIK
B5: humanized MJ2-7 v.2-11 (antibody, human IgG1, kappa, V domains shown)
VH: EVQLVESGGGLVQPGGSLRLSCAASGFNIKDTYIHWVRQAPGKGLEWIGRIDPANDNIKYDPKFQGRFTISADNAKNSAYLQMNSLRAEDTAVYYCARSEENWYDFFDYWGQGTLVTVSS
VL: DIQMTQSPSSLSASVGDRVTITCRSSQSIVHSNGNTYLEWYQQKPGKAPKLLIYKVSNRFSGVPSRFSGSGSGTDFTLTISSLQPEDFATYYCFQGSHIPYTFGGGTKVEIKR
B6: sIL-13Rα2-Fc (soluble human IL-13 receptor alpha 2 Fc fusion) (Fc fusion, UniProt Q14627 27-343, looked up, not shown: a dimerising Fc or GST)
chain: DTEIKVNPPQDFEIVDPGYLGYLYLQWQPPLSLDHFKECTVEYELKYRNIGSETWKTIITKNLHYKDGFDLNKGIEAKIHTLLPWQCTNGSEVQSSWAETTYWISPQGIPETKVQDMDCVYYNWQYLLCSWKPGIGVLLDTNYNLFYWYEGLDHALQCVDYIKADGQNIGCRFPYLEASDYKDFYICVNGSSENKPIRSSYFTFQLQNIVKPLPPVYLTFTRESSCEIKLKWSIPLGPIPARCFDYEIEIREDDTTLVTATVENETYTLKTTNETRQLCFVVRSKVNIYCSDDGIWSEWSDKQCWEGEDLSKKTLLR

How the values were obtained:
[1] = target: B2; assay: sandwich ELISA for total IL-13 in monkey serum, non-human primate IL-13 standards
Method: The concentrations of total IL-13 in serum samples obtained from hMJ2-7v.2-11-treated monkeys were determined using quantitative ELISA. […] After blocking and washing, the serum samples containing IL-13 from in vivo studies or the non-human primate IL-13 standards were incubated on the plate to allow for binding to the anti-IL-13 capture antibody. […] Streptavidin conjugated to HRP and the enzyme substrate 3,3′,5,5′-tetramethylbenzidine (TMB) peroxidase were added and optical densities were measured at 450 nm. The low limit of quantitation of the assay was approximately 0.15 ng/mL.

[2] = target: B6; assay: SPR (BIACORE): sIL-13Ralpha2-Fc amine-coupled to a CM5 chip, NHP IL-13 injected at 100 nM
Method: (§1) sIL-13RI2-Fc was directly coated onto a CM5 chip by standard amine coupling. NHP-IL-13 at 100 nM concentration was injected, and its binding to the immobilized IL-13RI2-Fc was detected by BIACORE3. An additional injection of 100 nM of anti IL-13 antibodies was added, and changes in binding were monitored.

FLAG-tagged NHP IL-13 [3] = target: T1, FLAG-tagged NHP IL-13 (cynomolgus monkey, UniProt Q5I6E4 21-132 (Macaca thibetana entry), limits assumed); assay: competition ELISA: IL-13Ralpha2-Fc coated on the plate, FLAG-tagged NHP IL-13 added with rising MJ2-7; the blocked partner is IL-13Ralpha2-Fc
T1 chain: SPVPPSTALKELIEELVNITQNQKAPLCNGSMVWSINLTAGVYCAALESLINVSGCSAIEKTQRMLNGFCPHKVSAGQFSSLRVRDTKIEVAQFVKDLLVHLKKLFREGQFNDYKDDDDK
Method: (§2) The ability of MJ2-7 to inhibit binding of NHP IL-13 to IL-13RI1 and IL-13RI2 was tested by ELISA. Recombinant soluble forms of human IL-13RI1-Fc and IL-13RI2-Fc were coated onto ELISA plates. FLAG-tagged NHP IL-13 was added in the presence of increasing concentrations of MJ2-7. […] This provides a basis for the neutralization of IL-13 bioactivity by MJ2-7.

[4] = target: T2, NHP-IL-13 in a complex with immobilised hu IL-13Rα2-Fc (cynomolgus monkey; human, UniProt Q14627 27-343, limits assumed); assay: SPR (BIACORE): antibody injected over NHP IL-13 held by immobilised sIL-13Ralpha2-Fc
T2 construct: Pre-formed ligand-receptor complex on a CM5 chip; not shown: Fc part
Method: as §1

native human IL-13 = native human IL-13 (human, UniProt P35225 34-146, limits assumed); assay: cell-based or functional assay
[5] = target: B2; assay: cell-based or functional assay
FLAG-tagged NHP IL-13 [6] = target: T1, FLAG-tagged NHP IL-13; assay: competition ELISA: IL-13Ralpha1-Fc coated on the plate, FLAG-tagged NHP IL-13 added with rising MJ2-7; the blocked partner is IL-13Ralpha1-Fc
Method: as §2

Chain of native human IL-13 (P35225 other isoform, or with tags, fused parts or gaps limits assumed): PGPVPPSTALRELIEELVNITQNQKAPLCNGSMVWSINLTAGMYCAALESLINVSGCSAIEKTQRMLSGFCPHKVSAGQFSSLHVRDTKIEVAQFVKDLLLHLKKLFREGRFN

## B1
[1]
  binding result: binds

## B2
[2]
  binding result: binds

## B3
FLAG-tagged NHP IL-13 [3]
  IC50 (read off the curve): ~80 pM
[4]
  binding result: no binding
Native human IL-13
  STAT6 phosphorylation in HT-29 cells, IC50: 480 pM
  STAT6 phosphorylation, IC50: ~293 pM
  tenascin C production by BEAS-2B cells, IC50: ~100 pM
[5]
  CD23 expression, IC50: ~242 pM
FLAG-tagged NHP IL-13 [6]
  IC50 (read off the curve): ~400 pM

## B4
Native human IL-13
  fold decrease in STAT6 phosphorylation in HT-29 cells, potency against MJ2-7: ~20 fold
[5]
  fold decrease in monocyte CD23 expression, potency against MJ2-7: ~20 fold

## B5
Native human IL-13
  STAT6 phosphorylation in HT-29 cells, IC50: 520 pM

## B6
Native human IL-13
  STAT6 phosphorylation in HT-29 cells, IC50: 330 pM
